Key:
[1] = biological target: T1, human CD70 expressed on the cell surface of tumor cell lines (human, UniProt P32970 1-193); assay: flow cytometry on DBTRG-05MG cells, PE anti-human Fc, MFI; same fit as Table 6, which prints it in nM
T1 construct: whole, on cells
T1 sequence (looked up): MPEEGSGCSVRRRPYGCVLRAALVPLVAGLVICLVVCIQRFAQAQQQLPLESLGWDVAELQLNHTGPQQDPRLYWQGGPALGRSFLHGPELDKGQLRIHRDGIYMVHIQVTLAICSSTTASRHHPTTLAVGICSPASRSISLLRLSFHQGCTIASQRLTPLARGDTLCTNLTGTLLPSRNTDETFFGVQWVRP
Experimental: The lead antibodies were tested for binding to renal carcinoma cells and glioblastoma cells expressing CD70 on the cell surface by flow cytometry. […] U251 cells were cultured with MEM medium containing of 10% FBS and 1% NEAA+1 mM sodium pyruvate. DBTRG-05MG cells were cultured with DMEM medium (Gibco, Cat #C11995500BT) containing of 10% FBS. Each of the lead antibodies and the controls were incubated for 30 mins with the different cell lines (3×10⁵ cells per well) in 0.2 ml FACS buffer (1×PBS with 0.1% BSA) at 4° C. Then, the cells were pelleted, washed, and incubated at 4° C. for 30 mins with 100 μl of 1:200 diluted PE-conjugated anti human Fc (Abcam, Ab98596) in FACS buffer. The cells were pelleted again, washed with PBS, resuspended in FACS buffer and analyzed by flow cytometer (Beckman, CytoFLEX).
Antibodies 2H8 and 2D2 had slightly higher binding ability to the cell lines than that of antibody 69A7.

[2] = biological target: T2, rat CD70 extra-cellular domain (ECD) linked to His tag (rat); assay: BLI, global fit, cell repeated in each row; response below range of quantification, filing reports no cross-reactivity
T2 construct: extracellular domain
Experimental: (§1) Recombinant proteins consisting of human, rat, or mouse CD70 extra-cellular domain (ECD) linked to His tag was purchased (from ACRO systems). 69A7 and 2E7 (20 nM) were immobilized on anti-human IgG Fc biosensor tips (ForteBio). Binding assays using one concentration (100 nM) of recombinant protein in solution were performed using Octet RED (ForteBio). Association time was set at 180s and dissociation time was set at 300s. Binding affinity was calculated using ForteBio Data Acquisition 6.3 software. Affinity was derived by fitting the kinetic data to a 1:1 Langmuir binding model utilizing global fitting algorithms. […] 2E7 had no cross-reactivity to rat or mouse CD70 (Table 10).

[3] = biological target: T3, mouse CD70 extra-cellular domain (ECD) linked to His tag (mouse, UniProt O55237 45-195); assay: as above
T3 construct: extracellular domain; also called MS CD70; not shown: His tag
T3 sequence (looked up): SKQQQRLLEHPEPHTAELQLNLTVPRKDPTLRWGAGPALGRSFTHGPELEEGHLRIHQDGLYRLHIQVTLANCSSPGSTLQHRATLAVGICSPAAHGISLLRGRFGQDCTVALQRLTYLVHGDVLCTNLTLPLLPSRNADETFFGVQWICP
Experimental: as §1

[4] = biological target: T1, human CD70 expressed on the cell …; assay: cell-based or functional assay

B1: 2E7, full IgG (antibody, V domains shown)
VH: QVQLQESGPGLVKPSETLSLTCTVSGGSVSSDYYYWSWIRQPPGKGLEWLGYIYYSGSTNYNPSLKSRVTISVDTSKNQFSLKLRSVTTADTAVYYCARGDGDFLGVCFDYWGQGTLVTVSS
VL: EIVLTQSPATLSLSPGERATLSCRASQSVSSYLAWYQQKPGQAPRLLIFDASNRATGIPARFSGSGSGTDFTLTISSLEPEDFAVYYCQQRSNWPLTFGGGTKVEIK
For B1, which EC50 [1] is on record?
The EC50 was 0.917 µg/mL.

And the Kd [2]?
The Kd was 1.75 nM.

What about the koff [2] of the same binder?
Its koff is 0.0104 s⁻¹.

What about the kon [2] of the same binder?
The kon was 5.9e+06 M⁻¹ s⁻¹.

What about the Kd [3] of the same binder?
The Kd was 1030 nM.

What about the koff [3] of the same binder?
Its koff is 0.121 s⁻¹.

And the kon [3]?
Its kon is 117000 M⁻¹ s⁻¹.

And the “Internalization rate (%) on 786-O” value [4]?
The value was 62%.

And the “Internalization rate (%) on Caki-1” value [4]?
The value was 51%.

Source: patent US20250066490A1 (PROFOUNDBIO US, published 2025)
